In patent US8784824B2, “Compositions and methods for treatment of angiogenesis in pathological lesions” (Philogen S.p.A., priority 2000, dated 2014):

How the values were obtained:
[1] = molecular target: T1, ED-B domain of fibronectin (Homo sapiens, UniProt P02751); experiment: Binding of L19-IFN-γ fusion proteins to ED-B (ELISA, BIAcore)
tumor cells = experiment: Block of tumor cell proliferation by L19-IFN-γ fusion proteins; assay type: cell-based; conditions: typical IFN-γ-dependent fashion
[2] = in vivo; cited from earlier work
FXa = experiment: Enzymatic activity of TF moiety, Spectrozyme FXa assay; assay type: biochemical; conditions: method of Ruf et al
Protocol: The enzymatic activity of the scFv-TF fusion protein was analyzed using the Spectrozyme FXa assay (American Diagnostica, Pfungstadt, Germany) as described by Ruf et al (1991).

C51 murine carcinoma = experiment: In vivo treatment with scFv-TF fusion protein, C51 tumors; design: species or system mouse
Protocol: (§1) Tumor bearing mice were obtained by subcutaneous injection of 10^6 of FE8 rat fibroblast, C51 colon carcinoma or F9 teratocarcinoma cells (Tarli et al., 1999). The cells were allowed to grow until the tumoral volume could be measured by a slide-calliper.
(§2) Mice with tumors of volume ca 200-300 mm^3 were injected with 20 ug scFv-TF fusion protein corresponding to 10 ug TF in 200 ul saline. The injection was repeated after 48 and 96 hours. Mice were monitored by tumor volume, weight and appearance including photographic documentation.
(§3) Mice with tumors of volume ca 1500 mm^3 were injected with a single dose of with 20 ug scFv-TF fusion protein corresponding to 10 ug TF in 200 ul saline. The injection was not repeated. Mice were monitored by tumor volume, weight and appearance including photographic documentation.

[3] = system: F9 murine teratocarcinoma, C51 murine carcinoma or FE8 tumors; experiment: Tumor infarction after scFv-TF injection in tumor bearing mice; assay type: in vivo, mouse; conditions: few hours after injection
Protocol: The antitumor activity of scFv(L19)-TF and scFv(D1.3)-TF was tested in mice bearing the F9 murine teratocarcinoma, the C51 murine carcinoma or FE8 tumors (derived from subcutaneously implanted ras-transformed rat fibroblasts). Experiments were performed both in mice bearing small tumors and in mice bearing very large tumors.
as §1

[4] = system: F9 murine teratocarcinoma; experiment: In vivo treatment with scFv-TF fusion protein, F9 tumors; design: species or system mouse; conditions: small F9 tumors; three injections of 20 μg (FIG. 4)
Protocol: as §1, §2

[5] = system: subcutaneously implanted F9 murine teratocarcinoma; experiment: Biodistribution of radioiodinated scFv(L19)-TF; assay type: in vivo, mouse; conditions: injected intravenously, quantitative biodistribution (FIG. 3)
Protocol: The in vivo targeting performance was analysed by biodistribution analysis as described in Tarli et al. (1999). Briefly, purified scFv(L19)-TF fusion protein was radioiodinated and injected into nude mice with subcutaneously implanted F9 murine teratocarcinoma. Mice were sacrificed at 24 hours after injection. The organs were weighed and the radioactivity counted. Targeting results of representative organs are expressed as percent of the injected dose per gram of tissue (% ID/g).

[6] = molecular target: T1, ED-B domain of fibronectin; experiment: Antigen binding assays of scFv(L19)-TF (ELISA, BIAcore, antigen column)
Protocol: The immunoreactivity of the scFv-TF fusion protein was analyzed by ELISA immunoassay, by BIAcore and by affinity chromatography on antigen column, as described (Neri et al., 1996; D. Neri et al. (1997) Nature Biotechnology, 15, 1271-1275.; Tarli et al., 1999).

[7] = system: FE8 tumors (ras-transformed rat fibroblasts); experiment: In vivo treatment with scFv-TF fusion protein, FE8 tumors; design: species or system mouse; conditions: large FE8 tumors; one injection of 20 μg (FIG. 7)
Protocol: as §1, §3

[8] = system: blood vessels of glioblastoma tumor; experiment: Immunohistochemistry on glioblastoma tumor
Protocol: (§4) Tumor and organ specimens were processed for microautoradiography to assess the pattern of ^125I-L19-IL2 fusion protein distribution within the tumors or organs as described by Tarli et al. 1999 (12). Immunohistochemical procedures were carried out as reported by Castellani et al. 1994 (11). The nonparametric Mann-Whitney test was used to assess the differences in tumor weights between the three different groups of animals (mice treated with L19-IL2 fusion protein, with mixture of L19+IL2 and PBS).
(§5) Tumor and organ specimens were processed for microautoradiography to assess the pattern of ^125I-L19TNFα fusion protein distribution within the tumors or organs as described by Tarli et al (Blood, 94: 192-198, 1999). Immunohistochemical procedures were carried out as reported by Castellani et al (Int. J. Cancer, 59: 612-618, 1994).

[9] = molecular target: T1, ED-B domain of fibronectin; experiment: Immunoreactivity of L19-mTNFα after radiolabelling; assay type: binding; design: recombinant ED-B domain of human Fibronectin (FN) as antigen; made in house; conditions: iodine-125, Iodogen method
Protocol: (§6) Purified L19-mTNFα was radiolabeled with iodine-125 using the Iodogen method (Salacinski et al., Anal. Biochem., 117: 136, 1981)(Pierce, Rockford, Ill.). After labelling, the immunoreactivity was more than 90%. 129 mice with subcutaneously implanted F9 murine teratocarcinoma were intravenously injected with 4 μg (2 μCi) of protein in 100 μl saline solution. Three animals were used for each time point. Mice were sacrificed at 3, 6, 24 and 48 hours after injection. The organs were weighed and the radioactivity was counted. All organs and tumors were placed in fixative for histological analysis and microautoradiography. Targeting results of representative organs are expressed as percent of the injected dose per gram of tissue (% ID/g).

[10] = system: C51 murine colon carcinoma; experiment: In vivo treatment with L19-mTNFα fusion protein; design: species or system mouse
Protocol: Treatment with purified L19-mTNFα fusion protein was preformed in groups of 3 Balb.C mice each injected subcutaneously with 10^6 of C51 cells. At day 12 after C51 cell injection, 0.8 μg/g of L19-TNFα fusion protein was injected into the tail vein of each animal. A similar group of 3 animals was injected with Phosphate Saline Buffer, pH 7.4 (PBS). The animals were followed for systemic toxicity (weight loss) and tumor growth daily for 6 days. At the end, animals were sacrificed and tumors were placed in fixative for histological analysis and snap frozen for immunohistochemical analysis.
The efficacy of the L19-mTNFα fusion protein in suppressing tumor growth was tested on one experimental tumor model of mouse adenocarcinoma, C51. For tumor induction, 10^6 C51 cells were injected subcutaneously in Balb/C animals. After 12 days (when the tumor reaches approximately 100-200 mm^3) animals received intravenous injections of either PBS (3 animals) or L19-mTNFα fusion protein (3 animals). The animals were monitored for weight and tumor growth daily for 6 days. […] The weight loss was always less than 6% throughout the experiment time.

[11] = system: subcutaneously implanted F9 murine teratocarcinoma; experiment: Biodistribution of radiolabeled L19-mTNFα fusion protein in tumor-bearing mice; assay type: in vivo, mouse; conditions: F9 tumor-bearing 129 mice
Protocol: as §6

[12] = system: blood vessels of the F9 mouse tumor; experiment: Microautoradiography of tumors and organs of F9 tumor-bearing mice; assay type: in vivo
Protocol: as §4, §5

[13] = molecular target: recombinant human fibronectin fragment 7B89 (human) (UniProt P02751); experiment: 125I-labelled protein on a 7B89/Sepharose column
[14] = intravenously injected; cited from earlier work
[15] = system: C51 murine carcinoma cell line; experiment: Crystal violet cytotoxicity assay; assay type: cell-based; conditions: Mus musculus; C51 cells; crystal violet staining (FIG. 9); read-out: 50% inhibitory concentrations towards C51 cells
Protocol: C51 murine adenocarcinoma cells were seeded in 24-well plates at a density between […] per well. The plates were incubated overnight at 37° C. in humidified, 5% CO2 atmosphere to ensure the growth of the monolayer. The medium was then removed and different concentrations of doxorubicin was added. Relative cell numbers in treated and control plates were determined by crystal violet staining. Quantification is possible by solubilising the absorbed dye in ethanol 70% and determining optical density at 590 nm where absorbance is directly proportional to cell number. Relative cell number can be expressed as T/C=T−C0/C−C0×100 [T=absorbance of treated cultures, C=absorbance of control cultures, and C0=absorbance of cultures at the start of incubation (t=0)]. The results of this study are depicted in FIG. 9.

T1 sequence (P02751 1271-1359 limits assumed): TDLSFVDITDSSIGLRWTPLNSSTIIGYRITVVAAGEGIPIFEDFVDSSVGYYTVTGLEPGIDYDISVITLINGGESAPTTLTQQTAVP
recombinant human fibronectin fragment 7B89 (human), sequence (P02751 1173-1537 limits assumed): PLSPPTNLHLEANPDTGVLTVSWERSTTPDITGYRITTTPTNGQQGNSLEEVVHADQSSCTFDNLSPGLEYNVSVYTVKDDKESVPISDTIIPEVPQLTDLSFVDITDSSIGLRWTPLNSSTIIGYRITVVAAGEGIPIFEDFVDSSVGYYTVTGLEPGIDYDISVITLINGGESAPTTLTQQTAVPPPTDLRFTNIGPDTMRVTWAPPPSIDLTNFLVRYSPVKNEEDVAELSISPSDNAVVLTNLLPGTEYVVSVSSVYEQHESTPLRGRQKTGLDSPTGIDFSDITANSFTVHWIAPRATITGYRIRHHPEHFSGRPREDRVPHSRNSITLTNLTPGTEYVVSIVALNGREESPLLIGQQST

## scFv(L19)-IFN-γ: IFN-γ monomer fused at the C-terminal extremity of scFv(L19)
[1]
  binding to the ED-B domain of fibronectin: bind with high-affinity
Tumor cells
  block of proliferation of tumor cells: block the proliferation of tumor cells

## TNFα
[2]
  plasma half-life: less than 30 minutes

## scFv(L19)-TF: scFv(L19) specific for ED-B domain of fibronectin genetically fused to truncated tissue factor
FXa
  activity of the TF moiety: active
C51 murine carcinoma; large C51 tumors, one injection of 20 μg (FIG. 6)
  antitumor effect on tumor growth: stopped tumor growth
C51 murine carcinoma; small C51 tumors, three injections of 20 μg (FIG. 5)
  reduction of growth rate: approx. 50%
[3]
  tumor infarction: rapid and extensive tumor infarction
[4]
  reduction of growth rate: approx. 50%
[5]
  ability to target solid tumors: target solid tumors
[6]
  activity of the antibody moiety: active
[7]
  antitumor effect on tumor growth: stopped tumor growth

## L19-mTNFα fusion protein: fusion of mouse TNFα to the scFv L19 via a 15 amino acid linker
[8]
  immunohistochemical staining of blood vessels: strongly stain blood vessels of glioblastoma tumor
[9]
  immunoreactivity after labelling: more than 90%
[10]; 0.8 μg/g i.v. at day 12, followed 6 days (FIG. 23)
  tumor growth with respect to animals injected with PBS: decrease in tumor growth
[10]; throughout the experiment time (6 days)
  weight loss: less than 6%
[11]; 3 h after i.v. injection
  % ID/g Bladder: 37.52 ± 26.7 % ID/g
  % ID/g Blood: 8.39 ± 5.0 % ID/g
  % ID/g Heart: 2.69 ± 0.7 % ID/g
  % ID/g Kidney: 7.96 ± 3.0 % ID/g
  % ID/g Liver: 8.42 ± 1.9 % ID/g
  % ID/g Lung: 6.56 ± 1.7 % ID/g
  % ID/g Muscle: 1.33 ± 0.3 % ID/g
  % ID/g Skin: 2.83 ± 1.3 % ID/g
  % ID/g Spleen: 9.08 ± 2.0 % ID/g
  % ID/g Thyroid: 3.21 ± 0.8 % ID/g
  % ID/g Tumor: 22 % ID/g
[11]; 3 h after i.v. injection, listed as L19-TNFa fusion protein
  % ID/g Tumor: 22.02 ± 2.3 % ID/g
[11]; 6 h after i.v. injection
  % ID/g Bladder: 18.14 ± 9.1 % ID/g
  % ID/g Blood: 2.13 ± 0.9 % ID/g
  % ID/g Heart: 1.32 ± 0.5 % ID/g
  % ID/g Kidney: 6.06 ± 5.2 % ID/g
  % ID/g Liver: 2.39 ± 0.9 % ID/g
  % ID/g Lung: 2.79 ± 1.4 % ID/g
  % ID/g Muscle: 0.76 ± 0.2 % ID/g
  % ID/g Skin: 1.68 ± 0.9 % ID/g
  % ID/g Spleen: 3.29 ± 0.9 % ID/g
  % ID/g Thyroid: 2.91 ± 1.8 % ID/g
  % ID/g Tumor: 11.57 ± 2.7 % ID/g
[11]; 24 h after i.v. injection
  % ID/g Bladder: 2.9 ± 2.2 % ID/g
  % ID/g Blood: 0.09 ± 0.0 % ID/g
  % ID/g Heart: 0.06 ± 0.0 % ID/g
  % ID/g Kidney: 0.18 ± 0.0 % ID/g
  % ID/g Liver: 0.15 ± 0.0 % ID/g
  % ID/g Lung: 0.18 ± 0.1 % ID/g
  % ID/g Muscle: 0.05 ± 0.0 % ID/g
  % ID/g Skin: 0.03 ± 0.0 % ID/g
  % ID/g Spleen: 0.13 ± 0.0 % ID/g
  % ID/g Thyroid: 1.93 ± 0.5 % ID/g
  % ID/g Tumor: 9.77 ± 1.4 % ID/g
[11]; 48 h after i.v. injection
  % ID/g Bladder: 0.08 ± 0.0 % ID/g
  % ID/g Blood: 0.01 ± 0.0 % ID/g
  % ID/g Heart: 0.01 ± 0.0 % ID/g
  % ID/g Kidney: 0.05 ± 0.0 % ID/g
  % ID/g Liver: 0.02 ± 0.0 % ID/g
  % ID/g Lung: 0.02 ± 0.0 % ID/g
  % ID/g Muscle: 0.0 ± 0.0 % ID/g
  % ID/g Skin: 0.01 ± 0.0 % ID/g
  % ID/g Spleen: 0.01 ± 0.0 % ID/g
  % ID/g Thyroid: 0.0 ± 0.0 % ID/g
  % ID/g Tumor: more than 9 % ID/g
[11]; 48 h after i.v. injection, listed as L19-TNFa fusion protein
  % ID/g Tumor: 9.55 ± 1.7 % ID/g
[12]; F9 mouse tumor, microradiographic analysis
  accumulation of radiolabeled fusion protein in tumor blood vessels: Accumulation of the radiolabeled fusion protein was shown
[12]; organs of F9 tumor bearing mice
  accumulation of radiolabeled fusion protein in vessels of other organs: No accumulation

## L19-IL2 fusion protein (from UniProt P60568 21-153)
[13]
  immunoreactive fraction: > 90%

## scFv(L19)-(IFN-γ)2: IFN-γ homodimer (two IFN-γ joined by a polypeptide linker) fused at the C-terminal extremity of scFv(L19)
[1]
  binding to the ED-B domain of fibronectin: strong binding
Tumor cells
  block of proliferation of tumor cells: block the proliferation of tumor cells

## COc1cccc2c1C(=O)c1c(O)c3c(c(O)c1C2=O)C[C@@](O)(C(=O)CO)C[C@@H]3O[C@H]1C[C@H](N)[C@H](O)[C@H](C)O1 [doxorubicin, Doxorubicin]
[14]
  maximal tolerated dose: 8 mg/kg
[15]
  IC50: ~100 nM
